From PMC10266016 (Proceedings of the National Academy of Sciences of the …, 2023)
Substitutions are numbered along the chain they refer to. One block for each molecule: values may come before it.

Columns and labels:
Experiment in all cases: ITC
[1] = molecular target: Human Scribble PDZ1 domain (human) (UniProt Q14160)
[2] = molecular target: Human Scribble PDZ3 domain (human) (UniProt Q14160)
[3] = molecular target: Human Scribble PDZ1 domain (human, UniProt Q14160 700-816)
Scribble PDZ3 K1040A = molecular target: T1, Scribble PDZ3 K1040A (human, UniProt Q14160 1002-1092, K1040A)
T1 sequence: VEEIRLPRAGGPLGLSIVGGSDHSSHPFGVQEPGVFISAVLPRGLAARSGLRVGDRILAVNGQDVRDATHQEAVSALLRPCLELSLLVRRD

[4] = molecular target: T2, Human Scribble PDZ3 domain (human, UniProt Q14160 1002-1092)
T2 sequence: T1 sequence with A39K

Scribble PDZ1 R762A = Scribble PDZ1 R762A (human, UniProt Q14160 700-816, R762A)
Scribble PDZ1 R762A, sequence (Q14160 700-816 R762A): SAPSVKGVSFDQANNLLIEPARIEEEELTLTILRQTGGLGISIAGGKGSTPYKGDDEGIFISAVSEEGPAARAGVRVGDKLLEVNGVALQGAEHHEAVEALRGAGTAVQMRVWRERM

Human Scribble PDZ1 domain, sequence (Q14160 700-816): as the sequence (Q14160 700-816 R762A) above, with A63R counted along it
Human Scribble PDZ1 domain (human), sequence (Q14160 700-816): as the sequence (Q14160 700-816 R762A) above, with A63R counted along it

Kd [1]: 57 µM | Kd [2]: 17.1 µM
Molecule: PTHR PBM peptide, 4-mer

Kd [3]: 31.7 µM | Kd (Scribble PDZ3 K1040A): 23.5 µM | Kd [4]: 13.4 µM | Kd (Scribble PDZ1 R762A): 39.9 µM
B1: PTHR PBM peptide, 8-mer (peptide)
peptide: QEEWETVM

Kd [3]: 11.5 µM | Kd [4]: 19.2 µM
B2: PTHR PBM peptide, 22-mer (peptide)
peptide: DEEASGPERPPALLQEEWETVM
